Test results as given in US20200283487A1 (UNIVERSITY OF SOUTHAMPTON, published 2020).

Target: T1, BSA (UniProt P02769 25-607)
T1 construct: Negative control analyte on the Biacore chip; also called BSA negative control
Experiment: SPR (Biacore), rfhSP-A immobilised to ~700 RU, BSA as soluble analyte

T1 sequence (P02769 25-607 limits assumed): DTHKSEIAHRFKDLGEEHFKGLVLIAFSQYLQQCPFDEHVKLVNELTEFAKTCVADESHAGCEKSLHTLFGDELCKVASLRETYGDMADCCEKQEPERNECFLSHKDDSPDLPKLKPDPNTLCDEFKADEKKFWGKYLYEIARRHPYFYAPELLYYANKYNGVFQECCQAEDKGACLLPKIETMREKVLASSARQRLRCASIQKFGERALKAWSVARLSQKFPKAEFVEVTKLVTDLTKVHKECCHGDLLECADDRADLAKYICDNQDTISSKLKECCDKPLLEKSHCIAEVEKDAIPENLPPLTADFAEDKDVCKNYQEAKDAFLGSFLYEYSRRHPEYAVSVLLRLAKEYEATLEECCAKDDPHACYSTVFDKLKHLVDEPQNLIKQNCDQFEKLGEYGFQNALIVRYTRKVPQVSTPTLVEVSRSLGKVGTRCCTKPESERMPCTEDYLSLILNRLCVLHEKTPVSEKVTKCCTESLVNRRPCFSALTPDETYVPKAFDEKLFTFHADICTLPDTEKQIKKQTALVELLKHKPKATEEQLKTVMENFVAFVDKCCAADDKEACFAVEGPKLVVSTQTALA

B1: rfhSP-A (recombinant fragment of human surfactant protein A; truncated SP-A polypeptide) (other)
chain: not shown
notes: C-type lectin (collectin) fragment; also called rhfSP-A; trimeric rfhSP-A
**Q.** Does B1 bind?
**A.** no binding
